# Data as given in IntAct's records for PubMed 19805355.
# B1: ATP-sensitive inward rectifier potassium channel 11 (Homo sapiens), Q14654 (parent)
# chain: MLSRKGIIPEEYVLTRLAEDPAKPRYRARQRRARFVSKKGNCNVAHKNIREQGRFLQDVFTTLVDLKWPHTLLIFTMSFLCSWLLFAMAWWLIAFAHGDLAPSEGTAEPCVTSIHSFSSAFLFSIEVQVTIGFGGRMVTEECPLAILILIVQNIVGLMINAIMLGCIFMKTAQAHRRAETLIFSKHAVIALRHGRLCFMLRVGDLRKSMIISATIHMQVVRKTTSPEGEVVPLHQVDIPMENGVGGNSIFLVAPLIIYHVIDANSPLYDLAPSDLHHHQDLEIIVILEGVVETTGITTQARTSYLADEILWGQRFVPIVAEEDGRYSVDYSKFGNTVKVPTPLCTARQLDEDHSLLEALTLASARGPLRKRSVPMAKAKPKFSISPDSLS
# Variants of: B1
# Conditions: with ank2_human ANK2, Q01484
# Sequence of ank2_human ANK2, Q01484 (Q01484 whole entry): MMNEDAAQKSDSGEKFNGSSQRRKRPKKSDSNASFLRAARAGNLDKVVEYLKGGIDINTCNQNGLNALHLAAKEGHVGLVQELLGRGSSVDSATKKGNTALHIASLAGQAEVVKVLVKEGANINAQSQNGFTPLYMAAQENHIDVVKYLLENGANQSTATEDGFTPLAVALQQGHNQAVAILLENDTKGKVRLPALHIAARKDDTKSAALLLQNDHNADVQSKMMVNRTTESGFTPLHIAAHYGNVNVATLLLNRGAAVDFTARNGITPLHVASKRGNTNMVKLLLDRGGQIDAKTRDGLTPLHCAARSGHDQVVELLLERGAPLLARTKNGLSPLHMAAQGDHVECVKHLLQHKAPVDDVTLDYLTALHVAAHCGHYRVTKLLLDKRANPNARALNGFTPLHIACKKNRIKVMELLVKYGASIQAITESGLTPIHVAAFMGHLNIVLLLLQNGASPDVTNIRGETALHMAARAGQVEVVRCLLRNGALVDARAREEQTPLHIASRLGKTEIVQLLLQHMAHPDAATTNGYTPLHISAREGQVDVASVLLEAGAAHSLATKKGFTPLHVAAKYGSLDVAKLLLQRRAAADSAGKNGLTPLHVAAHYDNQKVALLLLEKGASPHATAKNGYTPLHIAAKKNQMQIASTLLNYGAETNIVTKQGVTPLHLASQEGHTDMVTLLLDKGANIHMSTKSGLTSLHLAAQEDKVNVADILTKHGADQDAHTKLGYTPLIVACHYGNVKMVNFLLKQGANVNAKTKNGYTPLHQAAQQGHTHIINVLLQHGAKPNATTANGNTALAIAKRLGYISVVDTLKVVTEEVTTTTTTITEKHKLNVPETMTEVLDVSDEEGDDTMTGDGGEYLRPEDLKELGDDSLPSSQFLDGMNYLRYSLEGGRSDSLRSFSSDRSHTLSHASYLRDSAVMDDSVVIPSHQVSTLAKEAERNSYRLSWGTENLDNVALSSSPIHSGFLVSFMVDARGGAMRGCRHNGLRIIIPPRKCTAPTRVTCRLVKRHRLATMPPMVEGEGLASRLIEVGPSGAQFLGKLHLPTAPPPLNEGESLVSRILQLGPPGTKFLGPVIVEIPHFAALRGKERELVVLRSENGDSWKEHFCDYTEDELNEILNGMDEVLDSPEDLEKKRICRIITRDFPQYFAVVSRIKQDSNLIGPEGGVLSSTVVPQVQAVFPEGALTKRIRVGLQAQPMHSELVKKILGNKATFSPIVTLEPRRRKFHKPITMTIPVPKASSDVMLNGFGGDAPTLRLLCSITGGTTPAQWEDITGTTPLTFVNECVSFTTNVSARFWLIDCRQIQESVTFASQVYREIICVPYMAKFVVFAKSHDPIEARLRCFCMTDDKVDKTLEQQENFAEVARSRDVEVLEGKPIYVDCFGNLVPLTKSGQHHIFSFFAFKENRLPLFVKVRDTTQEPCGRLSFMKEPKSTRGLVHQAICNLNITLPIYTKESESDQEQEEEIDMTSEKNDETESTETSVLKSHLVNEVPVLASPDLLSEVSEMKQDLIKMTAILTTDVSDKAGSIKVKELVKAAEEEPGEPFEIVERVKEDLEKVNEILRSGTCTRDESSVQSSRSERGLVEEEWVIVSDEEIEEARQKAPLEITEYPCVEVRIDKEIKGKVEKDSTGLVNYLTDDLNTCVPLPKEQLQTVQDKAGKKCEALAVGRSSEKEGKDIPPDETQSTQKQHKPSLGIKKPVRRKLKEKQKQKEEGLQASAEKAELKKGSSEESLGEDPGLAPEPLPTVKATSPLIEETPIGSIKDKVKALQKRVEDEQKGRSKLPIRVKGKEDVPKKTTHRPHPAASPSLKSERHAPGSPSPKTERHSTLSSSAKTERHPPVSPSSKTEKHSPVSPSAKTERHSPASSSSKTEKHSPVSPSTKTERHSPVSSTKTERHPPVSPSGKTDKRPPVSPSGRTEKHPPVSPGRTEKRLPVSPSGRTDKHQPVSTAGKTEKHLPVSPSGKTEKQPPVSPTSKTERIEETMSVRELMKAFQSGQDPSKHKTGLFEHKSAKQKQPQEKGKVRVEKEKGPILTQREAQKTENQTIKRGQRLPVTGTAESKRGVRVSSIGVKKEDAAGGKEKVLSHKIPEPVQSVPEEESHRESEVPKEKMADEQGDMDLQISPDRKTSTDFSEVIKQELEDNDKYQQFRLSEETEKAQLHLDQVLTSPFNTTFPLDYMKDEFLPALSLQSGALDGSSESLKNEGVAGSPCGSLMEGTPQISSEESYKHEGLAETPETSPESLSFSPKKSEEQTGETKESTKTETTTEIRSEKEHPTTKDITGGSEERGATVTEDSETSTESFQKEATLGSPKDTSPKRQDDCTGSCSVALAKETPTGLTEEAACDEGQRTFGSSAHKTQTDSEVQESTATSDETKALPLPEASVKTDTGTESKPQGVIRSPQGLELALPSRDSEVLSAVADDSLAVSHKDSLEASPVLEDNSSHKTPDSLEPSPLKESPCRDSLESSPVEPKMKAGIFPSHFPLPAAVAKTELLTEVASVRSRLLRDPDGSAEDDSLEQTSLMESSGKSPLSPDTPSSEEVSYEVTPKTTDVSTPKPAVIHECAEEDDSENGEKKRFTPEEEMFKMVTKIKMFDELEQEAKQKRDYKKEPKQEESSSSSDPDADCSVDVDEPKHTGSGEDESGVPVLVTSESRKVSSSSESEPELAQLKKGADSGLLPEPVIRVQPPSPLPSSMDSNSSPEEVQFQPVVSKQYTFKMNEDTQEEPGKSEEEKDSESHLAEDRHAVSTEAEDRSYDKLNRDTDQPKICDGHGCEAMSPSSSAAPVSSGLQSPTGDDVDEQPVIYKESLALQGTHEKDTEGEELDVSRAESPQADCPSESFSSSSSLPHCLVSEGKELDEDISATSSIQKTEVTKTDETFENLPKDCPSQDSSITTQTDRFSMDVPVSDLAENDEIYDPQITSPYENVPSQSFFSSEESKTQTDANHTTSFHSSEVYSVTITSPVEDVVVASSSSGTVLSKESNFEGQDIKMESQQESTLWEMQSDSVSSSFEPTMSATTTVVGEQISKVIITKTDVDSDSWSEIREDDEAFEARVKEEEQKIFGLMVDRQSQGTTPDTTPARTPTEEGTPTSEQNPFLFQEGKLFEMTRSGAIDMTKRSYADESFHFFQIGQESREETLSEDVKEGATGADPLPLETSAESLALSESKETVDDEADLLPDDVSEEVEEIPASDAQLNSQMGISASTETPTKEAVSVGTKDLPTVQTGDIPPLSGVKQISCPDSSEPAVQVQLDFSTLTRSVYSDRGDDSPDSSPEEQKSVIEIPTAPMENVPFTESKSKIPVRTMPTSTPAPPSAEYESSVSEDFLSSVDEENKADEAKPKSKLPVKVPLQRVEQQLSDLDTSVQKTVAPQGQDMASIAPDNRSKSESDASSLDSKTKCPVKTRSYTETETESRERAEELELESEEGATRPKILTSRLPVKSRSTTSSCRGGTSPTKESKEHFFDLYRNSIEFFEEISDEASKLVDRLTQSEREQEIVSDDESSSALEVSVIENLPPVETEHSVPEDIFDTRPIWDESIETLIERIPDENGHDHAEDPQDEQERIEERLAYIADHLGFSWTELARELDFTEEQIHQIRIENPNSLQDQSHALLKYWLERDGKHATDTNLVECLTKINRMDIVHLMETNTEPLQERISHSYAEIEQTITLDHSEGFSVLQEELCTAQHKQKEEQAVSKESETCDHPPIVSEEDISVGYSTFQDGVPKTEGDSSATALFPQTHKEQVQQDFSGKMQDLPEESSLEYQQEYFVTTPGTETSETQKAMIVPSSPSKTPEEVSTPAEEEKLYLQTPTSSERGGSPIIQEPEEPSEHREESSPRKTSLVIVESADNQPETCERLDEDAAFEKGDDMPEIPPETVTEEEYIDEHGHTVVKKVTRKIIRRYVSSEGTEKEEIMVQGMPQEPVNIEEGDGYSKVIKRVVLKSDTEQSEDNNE
row,effect of a mutation on the interaction,Variant
1,disrupting interaction,MLSRKGIIPEEYVLTRLAEDPAKPRYRARQRRARFVSKKGNCNVAHKNIREQGRFLQDVFTTLVDLKWPHTLLIFTMSFLCSWLLFAMAWWLIAFAHGDLAPSEGTAEPCVTSIHSFSSAFLFSIEVQVTIGFGGRMVTEECPLAILILIVQNIVGLMINAIMLGCIFMKTAQAHRRAETLIFSKHAVIALRHGRLCFMLRVGDLRKSMIISATIHMQVVRKTTSPEGEVVPLHQVDIPMENGVGGNSIFLVAPLIIYHVIDANSPLYDLAPSDLHHHQDLEIIVILEGVVETTGITTQARTSYLADEILWGQRFVPIVAKEDGRYSVDYSKFGNTVKVPTPLCTARQLDEDHSLLEALTLASARGPLRKRSVPMAKAKPKFSISPDSLS [E321K]
2,disrupting interaction,MLSRKGIIPEEYVLTRLAEDPAKPRYRARQRRARFVSKKGNCNVAHKNIREQGRFLQDVFTTLVDLKWPHTLLIFTMSFLCSWLLFAMAWWLIAFAHGDLAPSEGTAEPCVTSIHSFSSAFLFSIEVQVTIGFGGRMVTEECPLAILILIVQNIVGLMINAIMLGCIFMKTAQAHRRAETLIFSKHAVIALRHGRLCFMLRVGDLRKSMIISATIHMQVVRKTTSPEGEVVPLHQVDIPMENGVGGNSIFLVAPLIIYHVIDANSPLYDLAPSDLHHHQDLEIIVILEGVVETTGITTQARTSYLADEILWGQRFVPIVAEEKGRYSVDYSKFGNTVKVPTPLCTARQLDEDHSLLEALTLASARGPLRKRSVPMAKAKPKFSISPDSLS [D323K]
3,disrupting interaction,MLSRKGIIPEEYVLTRLAEDPAKPRYRARQRRARFVSKKGNCNVAHKNIREQGRFLQDVFTTLVDLKWPHTLLIFTMSFLCSWLLFAMAWWLIAFAHGDLAPSEGTAEPCVTSIHSFSSAFLFSIEVQVTIGFGGRMVTEECPLAILILIVQNIVGLMINAIMLGCIFMKTAQAHRRAETLIFSKHAVIALRHGRLCFMLRVGDLRKSMIISATIHMQVVRKTTSPEGEVVPLHQVDIPMENGVGGNSIFLVAPLIIYHVIDANSPLYDLAPSDLHHHQDLEIIVILEGVVETTGITTQARTSYLADEILWGQRFVPIVAEKDGRYSVDYSKFGNTVKVPTPLCTARQLDEDHSLLEALTLASARGPLRKRSVPMAKAKPKFSISPDSLS [E322K]

# Variants of: B1
# Conditions: with ank2_human ANK2, Q01484
# Remark: another data set of the same source
row,effect of a mutation on the interaction,Variant
1,decreasing interaction,MLSRKGIIPEEYVLTRLAEDPAKPRYRARQRRARFVSKKGNCNVAHKNIREQGRFLQDVFTTLVDLKWPHTLLIFTMSFLCSWLLFAMAWWLIAFAHGDLAPSEGTAEPCVTSIHSFSSAFLFSIEVQVTIGFGGRMVTEECPLAILILIVQNIVGLMINAIMLGCIFMKTAQAHRRAETLIFSKHAVIALRHGRLCFMLRVGDLRKSMIISATIHMQVVRKTTSPEGEVVPLHQVDIPMENGVGGNSIFLVAPLIIYHVIDANSPLYDLAPSDLHHHQDLEIIVILEGVVETTGITTQARTSYLADEILWGQRFVPIVAEKDGRYSVDYSKFGNTVKVPTPLCTARQLDEDHSLLEALTLASARGPLRKRSVPMAKAKPKFSISPDSLS [E322K]
